Molecular target: ERK2 (unactivated, unphosphorylated) (UniProt P28482 P28482:2-360)
Assay: cleavage_in_vitro; half-maximal allozyme activation; about 100-fold activation by ERK2; 100 mM KCl, 1 mM MgCl2, 10 mM Tris 7.5, 34 C; text cites SEQ 39, listing gives Erk sensor molecule as SEQ 42
Procedure: To examine the dependence of activation on the concentration of ERK2, various amounts of ERK2 were added to different reactions (FIG. 31b). One half-maximal nucleic acid sensor molecule activation is promoted by ˜800 pg/μl ERK2.

Sequence of ERK2 (unactivated, unphosphorylated) (P28482 2-360, one chain of several): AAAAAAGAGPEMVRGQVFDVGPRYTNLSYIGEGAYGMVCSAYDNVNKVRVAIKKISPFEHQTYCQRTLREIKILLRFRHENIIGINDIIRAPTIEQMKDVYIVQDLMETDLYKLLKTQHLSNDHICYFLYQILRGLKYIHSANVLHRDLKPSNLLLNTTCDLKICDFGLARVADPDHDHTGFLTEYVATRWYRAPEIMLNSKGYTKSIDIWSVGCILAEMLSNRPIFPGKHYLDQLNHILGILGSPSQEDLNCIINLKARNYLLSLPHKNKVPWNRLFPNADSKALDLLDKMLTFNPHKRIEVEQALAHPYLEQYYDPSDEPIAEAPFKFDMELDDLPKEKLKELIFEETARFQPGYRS

B1: ERK2-responsive hammerhead allozyme (ssRNA)
RNA: GCGUGACCUGAUGAGUCACGCUAAGGAGGAUUUCCGAAAGCGGCUACGGUCCGCCAGUGUUACGAAACGUUCCC
B1 showed an EC50 of ~0.8 µg/mL.

Source: patent publication US20020102568, “Nucleic acid sensor molecules” (published 2002)
